{
  "source": "patent US20250361311A1",
  "about": "(Xencor, published 2025)",
  "binders": {"B1": {"name": "XENP47942 70416_041[TL1a]_H1L1_Fab IgG1_PVA_/S267K/M428L/N434S (antibody, V domains shown)", "VH": "QVQLVQSGAEVKKPGASVKVSCKVSGFSVTSYNVHWVRQAPGQGLEWMGVMWSGGNTDYNSKFQGRVTMTRDTSTNTVYMELSSLRSEDTAVYYCARAGRYYHDSNYYWDFPYWGQGTLVTVSS", "VL": "DIQMTQSPSSVSASVGDRVTITCRASEDIYSGLAWYQQKPGKSPKLLIYGASSLQDGVPSRFSGSGSGTDYTLTISSLQPEDFATYFCQEGLKSPYTFGAGTKLEIKR", "notes": "also called XmAb942; Xmab942"}},
  "key": {"[1]": {"target": "LIGHT (UniProt O43557 74-240, limits assumed)", "sequence (O43557 74-240 limits assumed)": "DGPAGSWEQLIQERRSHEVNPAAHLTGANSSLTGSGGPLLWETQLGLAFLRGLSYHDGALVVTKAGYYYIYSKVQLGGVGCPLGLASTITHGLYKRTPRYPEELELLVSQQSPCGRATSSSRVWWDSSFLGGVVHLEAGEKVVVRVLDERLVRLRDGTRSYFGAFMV", "experiment": "BLI (Octet RH96, FIG. 22)"}, "[2]": {"target": "TRAIL (UniProt P50591 114-281)", "sequence (P50591 114-281 limits assumed)": "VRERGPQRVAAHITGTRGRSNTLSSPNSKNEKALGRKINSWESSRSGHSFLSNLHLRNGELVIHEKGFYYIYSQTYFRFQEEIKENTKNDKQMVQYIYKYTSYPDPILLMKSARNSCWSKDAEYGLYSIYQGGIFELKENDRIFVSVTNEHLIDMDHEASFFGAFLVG", "experiment": "BLI (Octet RH96, FIG. 22)"}, "[3]": {"target": "T1, FasL (UniProt P48023 134-281, limits assumed)", "T1 sequence (looked up)": "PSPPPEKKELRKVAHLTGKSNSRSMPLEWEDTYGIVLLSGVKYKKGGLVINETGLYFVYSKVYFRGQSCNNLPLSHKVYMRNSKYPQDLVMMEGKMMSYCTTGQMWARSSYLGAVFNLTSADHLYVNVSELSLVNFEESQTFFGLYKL", "experiment": "BLI (Octet RH96, FIG. 22)"}, "[4]": {"target": "T2, membrane-bound TL1A transiently expressed on CHO cells (human, UniProt O95150 1-251)", "T2 construct": "whole, on cells", "T2 sequence (looked up)": "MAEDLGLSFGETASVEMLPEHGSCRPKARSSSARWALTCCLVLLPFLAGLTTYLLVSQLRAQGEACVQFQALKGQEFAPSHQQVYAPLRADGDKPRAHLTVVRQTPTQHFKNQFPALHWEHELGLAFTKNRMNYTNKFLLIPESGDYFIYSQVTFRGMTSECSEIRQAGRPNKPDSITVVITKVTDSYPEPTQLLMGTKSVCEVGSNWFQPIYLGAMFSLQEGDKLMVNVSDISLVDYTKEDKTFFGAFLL", "experiment": "flow cytometry on CHO cells transiently transfected with TL1A, 1 hour at 4 C", "protocol": "Anti-TL1A mAbs were first screened for binding affinity to membrane-bound TL1A. CHO cells were transiently transfected to express TL1A, then were incubated with anti-TL1A mAbs for 1 hour at 4° C. and analyzed by flow cytometry. Hundreds of anti-TL1A mAbs were screened for binding, in order to determine which were the best binders to investigate further. […] The binding data is depicted in FIG. 16A."}, "[5]": {"target": "T3, soluble recombinant human TL1A trimer (human, UniProt O95150 72-251, limits assumed)", "T3 construct": "also called active TL1A trimer; trimeric TL1A", "T3 sequence (looked up)": "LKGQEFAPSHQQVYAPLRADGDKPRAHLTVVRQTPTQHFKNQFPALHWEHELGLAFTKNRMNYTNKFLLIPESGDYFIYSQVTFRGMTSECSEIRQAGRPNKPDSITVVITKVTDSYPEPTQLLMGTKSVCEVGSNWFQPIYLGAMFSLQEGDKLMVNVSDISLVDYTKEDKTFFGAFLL", "experiment": "SPR at 37 C, soluble TL1A trimer up to 100 nM; apparent KD (KDapp)", "protocol": "In addition to measuring binding to scTL1A, binding to increasing concentrations of soluble recombinant human TL1A trimer (up to 100 nM) was measured at 37C via surface plasmon resonance."}},
  "data": [
    {"binder": "B1", "values": [
      {"measurement": "binding result", "setting": "[1]", "value": "no binding"},
      {"measurement": "binding result", "setting": "[2]", "value": "no binding"},
      {"measurement": "binding result", "setting": "[3]", "value": "no binding"},
      {"measurement": "EC50", "setting": "[4]", "value": 1.1, "unit": "nM"},
      {"measurement": "Kd", "setting": "[5]", "value": "0.008 to 0.01", "unit": "nM"}
    ]}
  ]
}
